Test results as given in publication PMC5441855.

System: CC(C)=CCC/C(C)=C/CC/C(C)=C/CC/C(C)=C/COP(=O)(O)OP(=O)(O)O
Assay: purified protein
Conditions: 50 mM HEPES pH 7.0, 100 mM KCl, 0.1 mM MgCl2, 10% glycerol, 30 °C, 1-25 µM GGPP, 30 s, product (-)-kolavenyl diphosphate

Substance: SdKPS (Tr-SdKPS) (Salvia divinorum)
- Km: 1.9 ± 0.66 µM
- kcat: 0.88 ± 0.11 s⁻¹
